The values that follow come from article PMC4980077.

Assay [1] has as its target PKA-RIα (Homo sapiens) (UniProt P10644). Kind of assay: fluorescence polarization. As to conditions: cited from earlier work. (In general: Fluorescence polarisation rises when a labelled molecule tumbles more slowly, as on binding a larger partner.)
For assay [2], the target named is PKA-RIβ (Homo sapiens) (UniProt P31321). Kind of assay: fluorescence polarization. Particulars: cited from earlier work.
Assay [3] addresses smAKAP-wt-GFP (human) (UniProt Q9BSF0). The assay can be described thus: FRET or BRET. On the technique in general: In BRET a luciferase serves as donor, and the signal depends on an acceptor being close.

Chain of smAKAP (Q9BSF0 2-95): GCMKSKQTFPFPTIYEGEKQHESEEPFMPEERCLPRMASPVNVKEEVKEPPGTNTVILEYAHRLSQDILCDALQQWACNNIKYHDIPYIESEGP
Chain of smAKAP-wt-GFP (human) (Q9BSF0 whole entry): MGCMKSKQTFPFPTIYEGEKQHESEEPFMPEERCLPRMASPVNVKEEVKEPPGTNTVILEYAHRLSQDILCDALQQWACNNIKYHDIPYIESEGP
Chain of PKA-RIα (Homo sapiens) (P10644 whole entry): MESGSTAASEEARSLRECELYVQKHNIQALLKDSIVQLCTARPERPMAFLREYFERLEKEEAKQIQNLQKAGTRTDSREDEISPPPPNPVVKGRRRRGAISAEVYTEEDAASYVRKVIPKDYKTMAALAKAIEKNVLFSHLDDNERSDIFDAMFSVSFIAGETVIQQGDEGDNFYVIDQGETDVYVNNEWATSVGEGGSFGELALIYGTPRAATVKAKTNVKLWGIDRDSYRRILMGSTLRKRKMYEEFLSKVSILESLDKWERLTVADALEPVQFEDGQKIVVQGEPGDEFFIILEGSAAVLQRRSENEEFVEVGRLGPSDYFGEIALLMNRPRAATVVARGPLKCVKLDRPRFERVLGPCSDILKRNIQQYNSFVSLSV

For smAKAP (from UniProt Q9BSF0), the Kd in assay [1] was 6.7 nM; in assay [2], 6.9 nM.

As for “PKA-RIβ-mKO2 (from UniProt P31321 1-381) (natural protein)”, in assay [3], the change of FRET signal after forskolin was -2.3%.

Usually Kd stands for the constant that tells how readily two partners part at equilibrium.
